Measurements published in the Human Domainome abundance scans (Beltran et al. 2025).
± gives the uncertainty stated by the source.

B1: Homeobox protein cut-like 1, residues 548 to 629; numbered along this chain, P39880 (parent)
chain: GEEMDTAEIARQVKEQLIKHNIGQRIFGHYVLGLSQGSVSEILARPKPWNKLTVRGKEPFHKMKQFLSDEQNILALRSIQGR

Variants of: B1
Experiment: abundance fitness (aPCA) (normalised: wild type 0, dead -1); higher = more abundant; growth selection in yeast, the domain comes from the species named
Details: Homo sapiens

Abundance fitness, by site and new letter:
G81: R -0.021 ± 0.036 | Y -0.163 ± 0.07 | S -0.028 ± 0.038 | Q 0.095 ± 0.054 | W -0.077 ± 0.052 | T 0.037 ± 0.047 | V 0.024 ± 0.035 | P -0.103 ± 0.077
R82: Y -0.079 ± 0.067 | C -0.054 ± 0.076 | L -0.06 ± 0.047 | N 0.076 ± 0.089 | S 0.011 ± 0.046 | W -0.149 ± 0.049 | G 0.117 ± 0.035 | E 0.047 ± 0.05 | K 0.123 ± 0.07 | T -0.039 ± 0.052 | M -0.047 ± 0.056 | A 0.013 ± 0.047 | P 0.065 ± 0.063 | V 0.024 ± 0.046 | Q 0.172 ± 0.067 | D -0.092 ± 0.07 | H 0.063 ± 0.13
